Test results as given in US7022323.

Assays:
[1] = biological target: DC-SIGNR (DC-SIGN Related), human, expressed on HeLa-DC-SIGN-R cells (homo sapien) (UniProt Q9H2X3); experiment: flow cytometry on HeLa-DC-SIGN-R cells
[2] = biological target: DC-SIGN (Dendritic Cell-Specific Intercellular adhesion molecule 3-Grabbing Nonintegrin), human, expressed on HeLa-DC-SIGN cells (homo sapien) (UniProt Q9NNX6); experiment: flow cytometry on HeLa-DC-SIGN cells
DC-SIGN (Dendritic Cell-Specific Intercellular adhesion molecule 3-Grabbing Nonintegrin), human, expressed on HeLa-DC-SIGN cells (homo sapien), sequence (Q9NNX6 whole entry): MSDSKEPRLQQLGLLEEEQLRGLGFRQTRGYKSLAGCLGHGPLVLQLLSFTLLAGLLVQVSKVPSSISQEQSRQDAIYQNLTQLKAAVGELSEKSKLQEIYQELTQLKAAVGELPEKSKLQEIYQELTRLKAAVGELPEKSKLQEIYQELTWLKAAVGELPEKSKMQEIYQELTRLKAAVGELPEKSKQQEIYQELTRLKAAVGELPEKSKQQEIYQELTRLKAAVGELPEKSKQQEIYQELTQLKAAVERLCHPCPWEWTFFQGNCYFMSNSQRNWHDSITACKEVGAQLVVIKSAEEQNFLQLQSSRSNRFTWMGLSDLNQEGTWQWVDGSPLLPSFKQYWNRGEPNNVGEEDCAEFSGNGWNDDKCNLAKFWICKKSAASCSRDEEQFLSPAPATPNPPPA

DC-SIGNR (DC-SIGN Related), human, expressed on HeLa-DC-SIGN-R cells (homo sapien), sequence (Q9H2X3 whole entry C368X): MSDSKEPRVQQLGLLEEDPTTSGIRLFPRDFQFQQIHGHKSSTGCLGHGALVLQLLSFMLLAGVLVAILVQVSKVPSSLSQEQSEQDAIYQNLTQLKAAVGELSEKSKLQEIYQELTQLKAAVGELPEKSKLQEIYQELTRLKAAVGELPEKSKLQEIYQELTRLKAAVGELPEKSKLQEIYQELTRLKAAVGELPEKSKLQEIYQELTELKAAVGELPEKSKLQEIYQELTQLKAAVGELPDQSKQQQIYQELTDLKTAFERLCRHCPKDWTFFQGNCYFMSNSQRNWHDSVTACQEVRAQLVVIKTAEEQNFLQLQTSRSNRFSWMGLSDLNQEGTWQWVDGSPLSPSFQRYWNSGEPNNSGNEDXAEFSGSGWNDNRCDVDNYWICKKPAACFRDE

| % Positive Cells [1] [%] | Mean fluorescence intensity [1] | % Positive Cells [2] [%] | Mean fluorescence intensity [2] | Substance |
| --- | --- | --- | --- | --- |
| 94.8 | 102 | 67.3 | 46.6 | 120612 (612X), mouse IgG2a mAb that recognizes both DC-SIGN and DC-SIGN-R (BD Pharmingen) (antibody) |
| 3.5 | 17.1 | 90.6 | 81.1 | 120507 (507D), DC-SIGN-specific mouse IgG2b mAb (BD Pharmingen) (antibody) |
| 96 | 129 | 1.1 | 14.2 | 120604 (604L), DC-SIGN-R-specific mouse IgG2b mAb (BD Pharmingen) (antibody) |
| 2.8 | 13.7 | 1 | 16.9 | Isotype control (antibody) |
